Assay results from paper PMC9371724 (2022).

T1: HA69 peptide on HLA DQB1*06:02/DQA1*01:02 (DQ0602) (human)
T1 peptide: AMERNAGSGIIISDT

B1: TCR CATGSYNTDKLIF / CASSPGLAGGTGELFF (TCR)
alpha TRAV17 TRAJ34 CDR3: CATGSYNTDKLIF
beta TRBV4-3 TRBJ2-2 CDR3: CASSPGLAGGTGELFF
B2: …-1 (TCR)
alpha TRAV9-2 TRAJ8 CDR3: CALSEGSTGFQKLVF
beta TRBV7-8 TRBJ1-3 CDR3: CASSVAGNGNTIYF
B3: TCR CIVRVLTNQGGKLIF / CSAGSGLGGYNEQFF (TCR)
alpha TRAV26-1 TRAJ23 CDR3: CIVRVLTNQGGKLIF
beta TRBV20-1 TRBJ2-1 CDR3: CSAGSGLGGYNEQFF
B4: …-1 (TCR)
alpha TRAV27 TRAJ26 CDR3: CKYGQNFVF
beta TRBV19 TRBJ2-3 CDR3: CASSRPGLNTDTQYF
B5: TCR821 (TCR)
alpha TRAV26-1 TRAJ23 CDR3: CIVMLTTNQGGKLIF
beta TRBV19 TRBJ2-4 CDR3: CASSPGLAGGGSIQYF
B6: …-1 (TCR)
alpha TRAV19 TRAJ45 CDR3: CALSEDAGGGADGLTF
beta TRBV12-3 TRBJ2-5 CDR3: CASRRHQQETQYF
B7: TCR CATVGYNTDKLIF / CASSQGQAATNEKLFF (TCR)
alpha TRAV17 TRAJ34 CDR3: CATVGYNTDKLIF
beta TRBV4-3 TRBJ1-4 CDR3: CASSQGQAATNEKLFF
B8: …-1 (TCR)
alpha TRAV8-6 TRAJ42 CDR3: CAVMGYGGSQGNLIF
beta TRBV4-3 TRBJ2-1 CDR3: CASSQELGVYNEQFF
B9: TCR CIVRVGTNQGGKLIF / CASSMGLALETQYF (TCR)
alpha TRAV26-1 TRAJ23 CDR3: CIVRVGTNQGGKLIF
beta TRBV19 TRBJ2-5 CDR3: CASSMGLALETQYF
B10: …-1 (TCR)
alpha TRAV2 TRAJ20 CDR3: CAVEDKHDYKLSF
beta TRBV9 TRBJ1-2 CDR3: CASSFKEGSNYGYTF
B11: …-1 (TCR)
alpha TRAV2 TRAJ40 CDR3: CAVEDRDSGTYKYIF
beta TRBV18 TRBJ2-1 CDR3: CASSPSRGAPEYNEQFF
B12: TCR CALSEAFPPLYNFNKFYF / CASSLFATSGKDTQYF (TCR)
alpha TRAV19 TRAJ21 CDR3: CALSEAFPPLYNFNKFYF
beta TRBV5-6 TRBJ2-3 CDR3: CASSLFATSGKDTQYF
B13: TCR CAANLDNFNKFYF / CATSRGIQPNEKLFF (TCR)
alpha TRAV25 TRAJ21 CDR3: CAANLDNFNKFYF
beta TRBV15 TRBJ1-4 CDR3: CATSRGIQPNEKLFF
B14: …-1 (TCR)
alpha TRAV8-4 TRAJ9 CDR3: CAVNGGFKTIF
beta TRBV6-1 TRBJ2-1 CDR3: CASRDRNQYNEQFF
B15: TCR CAGSSANQAGTALIF / CSARGGQGAPSPLHF (TCR)
alpha TRAV35 TRAJ15 CDR3: CAGSSANQAGTALIF
beta TRBV20-1 TRBJ1-6 CDR3: CSARGGQGAPSPLHF
B16: TCR CATDGGGIGAGSYQLTF / CATSRGGSPPYEQYF (TCR)
alpha TRAV17 TRAJ28 CDR3: CATDGGGIGAGSYQLTF
beta TRBV15 TRBJ2-7 CDR3: CATSRGGSPPYEQYF
B17: …-1 (TCR)
alpha TRAV9-2 TRAJ4 CDR3: CALPSLSGGYNKLIF
beta TRBV7-8 TRBJ1-3 CDR3: CASSLAGNGNTIYF
B18: …-1 (TCR)
alpha TRAV12-3 TRAJ39 CDR3: CATSYNNAGNMLTF
beta TRBV4-2 TRBJ2-5 CDR3: CASSQGTSGEETQYF
B19: TCR100 (TCR)
alpha TRAV8-3 TRAJ24 CDR3: CAVVTTDSWGKFQF
beta TRBV19 TRBJ1-5 CDR3: CASSDSPTGHGNQPQHF
B20: TCR CAASMSTNQGGKLIF / CSADRYAYEQYF (TCR)
alpha TRAV13-1 TRAJ23 CDR3: CAASMSTNQGGKLIF
beta TRBV20-1 TRBJ2-7 CDR3: CSADRYAYEQYF
B21: …-1 (TCR)
alpha TRAV38-2/DV8 TRAJ39 CDR3: CAYRSFNNAGNMLTF
beta TRBV28 TRBJ1-6 CDR3: CASTETGSNSPLHF
B22: TCR CATDSYNTDKLIF / CASSQGLGPTNYGYTF (TCR)
alpha TRAV17 TRAJ34 CDR3: CATDSYNTDKLIF
beta TRBV4-3 TRBJ1-2 CDR3: CASSQGLGPTNYGYTF
B23: TCR CAVSDRDSGNTPLVF / CASSQGDVNYGYTF (TCR)
alpha TRAV8-6 TRAJ29 CDR3: CAVSDRDSGNTPLVF
beta TRBV4-3 TRBJ1-2 CDR3: CASSQGDVNYGYTF
B24: TCR CAVSEGRSNQGGKLIF / CASSSQGRENEQYF (TCR)
alpha TRAV8-6 TRAJ23 CDR3: CAVSEGRSNQGGKLIF
beta TRBV19 TRBJ2-7 CDR3: CASSSQGRENEQYF
B25: TCR806 (TCR)
alpha TRAV26-1 TRAJ33 CDR3: CIVRGGTNMDSNYQLIW
beta TRBV19 TRBJ1-6 CDR3: CASTGQGNSPLHF
B26: TCR CAVQELARLMF / CASSVEGYSSPLHF (TCR)
alpha TRAV20 TRAJ31 CDR3: CAVQELARLMF
beta TRBV6-1 TRBJ1-6 CDR3: CASSVEGYSSPLHF
B27: TCR CIVRVGTNMDSNYQLIW / CASSKSYNEQFF (TCR)
alpha TRAV26-1 TRAJ33 CDR3: CIVRVGTNMDSNYQLIW
beta TRBV19 TRBJ2-1 CDR3: CASSKSYNEQFF
B28: TCR CILRGGTNQGGKLIF / CSAEGQGAGNTIYF (TCR)
alpha TRAV26-2 TRAJ23 CDR3: CILRGGTNQGGKLIF
beta TRBV20-1 TRBJ1-3 CDR3: CSAEGQGAGNTIYF
B29: …-1 (TCR)
alpha TRAV29/DV5 TRAJ48 CDR3: CAAKGGGNEKLTF
beta TRBV12-3 TRBJ1-3 CDR3: CASTPRVLQFSGNTIYF
B30: …-1 (TCR)
alpha TRAV26-2 TRAJ41 CDR3: CILRDSNSGYALNF
beta TRBV7-8 TRBJ1-5 CDR3: CASSSGTHRSPQHF
B31: …-1 (TCR)
alpha TRAV38-2/DV8 TRAJ39 CDR3: CAYRSANNAGNMLTF
beta TRBV6-5 TRBJ1-5 CDR3: CASRTSGGNQPQHF
B32: …-1 (TCR)
alpha TRAV10 TRAJ41 CDR3: CVVSEGGYALNF
beta TRBV5-1 TRBJ1-5 CDR3: CASSDGTDSNQPQHF
B33: …-1 (TCR)
alpha TRAV20 TRAJ52 CDR3: CAVQAPGTSYGKLTF
beta TRBV24-1 TRBJ2-3 CDR3: CATSVGTSGYTQYF
B34: …-1 (TCR)
alpha TRAV21 TRAJ46 CDR3: CAVRPKEGSGDKLTF
beta TRBV2 TRBJ2-2 CDR3: CASSESGRGPGELFF
B35: TCR CVVRGQAGTALIF / CASSGHWNTEAFF (TCR)
alpha TRAV10 TRAJ15 CDR3: CVVRGQAGTALIF
beta TRBV19 TRBJ1-1 CDR3: CASSGHWNTEAFF
B36: TCR CAVGATDSWGKFQF / CASSIDATGHSNQPQHF (TCR)
alpha TRAV8-3 TRAJ24 CDR3: CAVGATDSWGKFQF
beta TRBV19 TRBJ1-5 CDR3: CASSIDATGHSNQPQHF
B37: TCR512 (TCR)
alpha TRAV13-1 TRAJ23 CDR3: CAAPYNQGGKLIF
beta TRBV19 TRBJ1-5 CDR3: CASSIVRGLYSNQPQHF
B38: TCR CALGPGDNQGGKLIF / CASSLAQAPAGETQYF (TCR)
alpha TRAV9-2 TRAJ23 CDR3: CALGPGDNQGGKLIF
beta TRBV11-1 TRBJ2-5 CDR3: CASSLAQAPAGETQYF
B39: TCR CATVAYNTDKLIF / CASSPGRTGGTYYGYTF (TCR)
alpha TRAV17 TRAJ34 CDR3: CATVAYNTDKLIF
beta TRBV4-3 TRBJ1-2 CDR3: CASSPGRTGGTYYGYTF
B40: …-1 (TCR)
alpha TRAV17 TRAJ54 CDR3: CATDAAGAQKLVF
beta TRBV19 TRBJ2-1 CDR3: CASSILAGVYNEQFF
B41: …-1 (TCR)
alpha TRAV5 TRAJ8 CDR3: CAEMDTGFQKLVF
beta TRBV6-5 TRBJ1-1 CDR3: CASSGQGSTEAFF
B42: …-1 (TCR)
alpha TRAV10 TRAJ26 CDR3: CVVSPTGGQNFVF
beta TRBV6-2 TRBJ2-6 CDR3: CASSYWGLGANVLTF
B43: …-1 (TCR)
alpha TRAV21 TRAJ30 CDR3: CAVGDDKIIF
beta TRBV12-3 TRBJ1-1 CDR3: CASSSRSGLKAFF

Target: T1, HA69 peptide on HLA …
Assay: activation reporter or marker

Row | Binder | binding result
1 | B1 | recognises
2 | B2 | no recognition
3 | B3 | recognises
4 | B4 | no recognition
5 | B5 | recognises
6 | B6 | no recognition
7 | B7 | recognises
8 | B8 | no recognition
9 | B9 | recognises
10 | B10 | no recognition
11 | B11 | no recognition
12 | B12 | recognises
13 | B13 | recognises
14 | B14 | no recognition
15 | B15 | recognises
16 | B16 | recognises
17 | B17 | no recognition
18 | B18 | no recognition
19 | B19 | recognises
20 | B20 | recognises
21 | B21 | no recognition
22 | B22 | recognises

Row | Binder | binding result
23 | B23 | recognises
24 | B24 | recognises
25 | B25 | recognises
26 | B26 | recognises
27 | B27 | recognises
28 | B28 | recognises
29 | B29 | no recognition
30 | B30 | no recognition
31 | B31 | no recognition
32 | B32 | no recognition
33 | B33 | no recognition
34 | B34 | no recognition
35 | B35 | recognises
36 | B36 | recognises
37 | B37 | recognises
38 | B38 | recognises
39 | B39 | recognises
40 | B40 | no recognition
41 | B41 | no recognition
42 | B42 | no recognition
43 | B43 | no recognition
